In the Human Domainome abundance scans (Beltran et al. 2025):

B1: Far upstream element-binding protein 1, residues 98 to 169; numbered along this chain, Q96AE4 (parent)
chain: RSVMTEEYKVPDGMVGFIIGRGGEQISRIQQESGCKIQIAPDSGGLPERSCMLTGTPESVQSAKRLLDQIVE

Variants of: B1
Assay: abundance fitness (aPCA) (normalised: wild type 0, dead -1); higher = more abundant; growth selection in yeast, the domain comes from the species named
Details: Homo sapiens

Abundance fitness of substitutions, site by site:
A40: G -0.039 | K -0.058 | L -0.05 | M -0.032 | N -0.103 | P -0.02 | Q -0.045 | R -0.064 | S -0.034 | T -0.024 | V -0.089 | Y -0.088
P41: A -0.044 | C -0.025 | D 0.009 | E 0.005 | F -0.198 | H -0.124 | I -0.176 | K -0.04 | L -0.155 | M -0.064 | N -0.051 | Q -0.031 | R -0.031 | S -0.023 | T -0.016 | V -0.111 | Y -0.16
D42: A -0.041 | C -0.015 | E 0.014 | F -0.094 | H -0.04 | I -0.085 | K -0.026 | L -0.095 | M -0.08 | N -0.031 | P 0.004 | Q -0.054 | R -0.027 | S -0.024 | T -0.053 | W -0.089 | Y -0.113
S43: A -0.016 | C -0.131 | D -0.042 | G -0.066 | I -0.024 | K -0.091 | L -0.098 | M -0.087 | N -0.043 | P -0.234 | R -0.086 | T -0.037 | V -0.068 | W -0.142 | Y -0.124
G44: A -0.013 | C -0.019 | D -0.017 | E -0.004 | F -0.107 | H -0.092 | I -0.064 | L -0.05 | M -0.012 | N -0.024 | P -0.061 | Q -0.023 | R -0.015 | S -0.003 | T 0.002 | W -0.125 | Y -0.037
G45: A -0.046 | C -0.034 | D -0.002 | E -0.023 | H -0.163 | I -0.14 | K -0.086 | L -0.115 | M -0.093 | N -0.094 | P -0.078 | Q -0.046 | R -0.078 | S -0.027 | T -0.074 | V -0.111 | W -0.166 | Y -0.095
L46: C -0.026 | D -0.006 | E 0.016 | F -0.004 | G -0.01 | H -0.011 | I -0.092 | K -0.006 | M -0.031 | N -0.023 | P -0.124 | Q -0.001 | R -0.006 | T -0.006 | W -0.132 | Y -0.093
P47: A -0.012 | C -0.061 | D -0.007 | E -0.025 | F -0.084 | G -0.019 | H -0.052 | I -0.049 | K -0.004 | L -0.02 | M -0.088 | N -0.012 | Q 0.019 | R -0.054 | S -0.014 | T -0.007 | V -0.038
E48: A -0.041 | C -0.119 | D -0.059 | F -0.015 | G -0.045 | H -0.114 | I -0.057 | K -0.084 | L 0.001 | M -0.092 | N -0.019 | P -0.088 | Q -0.085 | S -0.057 | T -0.028 | V -0.035 | W 0.004 | Y 0.02
R49: A -0.088 | C -0.183 | D -0.172 | E -0.188 | F -0.248 | G -0.088 | H -0.106 | I -0.133 | K -0.079 | L -0.18 | N -0.085 | P -0.144 | Q -0.083 | S -0.086 | T -0.068 | V -0.116 | W -0.318 | Y -0.072
S50: A -0.048 | C -0.015 | D -0.023 | E -0.06 | F -0.177 | G -0.054 | H -0.105 | I 0.07 | K -0.019 | L -0.002 | M -0.018 | N 0.038 | P -0.043 | Q -0.025 | R -0.011 | T -0.015 | V -0.017 | W -0.174 | Y -0.117
C51: A -0.06 | D -0.956 | E -1 | F 0.049 | G -0.417 | H -0.718 | K -1.12 | L -0.019 | M 0.017 | P -0.597 | Q -0.818 | R -0.984 | S -0.284 | T -0.093 | V 0.006 | W -0.108 | Y -0.116
M52: A -0.056 | C -0.004 | D -0.139 | E -0.053 | G -0.137 | H -0.025 | I -0.018 | K -0.045 | L 0 | N -0.072 | P -0.625 | Q -0.032 | R -0.017 | S 0.001 | T -0.033 | V 0 | W -0.011 | Y -0.012
L53: A -0.719 | D -1 | F -0.349 | G -1.1 | H -0.99 | I 0.048 | K -0.835 | M -0.095 | N -1.05 | P -1.03 | Q -1.1 | R -1.05 | S -0.899 | T -0.923 | V -0.132 | W -1.03 | Y -1.67
T54: A -0.081 | C -0.085 | D -0.191 | E -0.028 | F -0.105 | G -0.282 | H -0.056 | I -0.054 | K 0.01 | L -0.087 | M 0 | N -0.069 | P -1.23 | Q -0.067 | S -0.027 | V -0.05 | W -0.185 | Y -0.046
G55: A -0.534 | C -1.24 | D -0.936 | E -1.12 | F -1.41 | H -0.721 | I -1.12 | K -1.05 | L -1.51 | N -1.1 | P -1.13 | S -0.44 | T -1.32 | V -1.31
T56: A -0.046 | C -0.026 | D -0.067 | E -0.036 | F -0.087 | G -0.091 | I -0.079 | K -0.027 | L -0.062 | N -0.03 | Q -0.042 | R -0.058 | S -0.006 | V -0.04 | W -0.154 | Y -0.066
P57: A -0.017 | C -0.111 | D -0.097 | E -0.008 | F 0.057 | G -0.025 | H -0.12 | I -0.088 | K -0.044 | L -0.048 | N 0.001 | Q 0.033 | R -0.021 | S -0.027 | V -0.086 | W -0.104 | Y -0.049
E58: A -0.051 | C -0.17 | D 0.03 | G -0.05 | H -0.052 | I -0.069 | K -0.035 | L -0.072 | N -0.107 | P -0.065 | Q 0.001 | R -0.08 | S -0.041 | T -0.038 | V -0.075 | W -0.125 | Y -0.05
S59: C -0.071 | D -0.053 | E 0.012 | F -0.428 | G -0.046 | H -0.063 | I -0.252 | K -0.046 | L -0.401 | M -0.089 | P -0.555 | Q -0.017 | R -0.064 | T -0.058 | V -0.116 | W -0.754
